In paper PMC2892505, “SUMO-1 possesses DNA binding activity”:

B1: 27-mer (dsDNA)
DNA 1: CGGGGCCGGGGCGGGCCGCGCAAGCAG
DNA 2: CTGCTTGCGCGGCCCGCCCCGGCCCCG

Experiments:
GST-SUMO-1 [1] = experiment: cross-linking; about 100 ng protein without or with increasing dsDNA, 10 min 37°C in NMR buffer (100 mM Na2PO4 pH 6.6, 1 mM EDTA, 1 mM DTT), UV 312 nm 10 min, SDS-PAGE and western blot (anti-GST or anti-SUMO-1); also with DNaseI treatment
SUMO-1 = SUMO-1 (human, UniProt P63165 1-101); experiment: UV crosslinking, Western blot; NMR: 100 mM NaPi pH 6.6, 1 mM DTT, 1 mM EDTA, temperature not stated; UV crosslink: 100 ng GST-SUMO-1 with 500 ng dsDNA, buffer not stated; settings: protein: recombinant; tags: untagged (GST removed by thrombin); 15N-labeled for NMR; blunt
SUMO-1, sequence (P63165 whole entry): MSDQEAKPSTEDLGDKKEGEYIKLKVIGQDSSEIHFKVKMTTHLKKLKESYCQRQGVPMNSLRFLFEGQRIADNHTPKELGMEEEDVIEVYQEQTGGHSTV

GST-SUMO-1 [2] = molecular target: GST-SUMO-1 (human, UniProt P63165 1-101); experiment: UV crosslinking, Western blot; complex migrates faster than with 65-mer; NMR: 100 mM NaPi pH 6.6, 1 mM DTT, 1 mM EDTA, temperature not stated; UV crosslink: 100 ng GST-SUMO-1 with 500 ng dsDNA, buffer not stated; settings: protein: recombinant; chain copies: 2; blunt
GST-SUMO-1 (human, UniProt P63165 1-101), sequence (P63165 whole entry): as above

Molecule	stoichiometry N (GST-SUMO-1 [1])	binding result (SUMO-1)	binding result (GST-SUMO-1 [2])
GST-SUMO-1	2	–	–
B1	–	binds	binds
